Nine molecules from patent US9828595B2, “Thermostable asparaginase variants and polynucleotides encoding same” (Novozymes A/S, priority 2012, dated 2017) can be followed below.

Where a chain is given by its changes, count along the chain named. Names may count otherwise.

Series [1] addresses T1, Aspergillus niger asparaginase, wild type, SEQ ID NO: 10 (Aspergillus niger, UniProt A2QBE5).
T1 construct: enzyme preparation tested in Nessler assay
T1 sequence (A2QBE5 18-378): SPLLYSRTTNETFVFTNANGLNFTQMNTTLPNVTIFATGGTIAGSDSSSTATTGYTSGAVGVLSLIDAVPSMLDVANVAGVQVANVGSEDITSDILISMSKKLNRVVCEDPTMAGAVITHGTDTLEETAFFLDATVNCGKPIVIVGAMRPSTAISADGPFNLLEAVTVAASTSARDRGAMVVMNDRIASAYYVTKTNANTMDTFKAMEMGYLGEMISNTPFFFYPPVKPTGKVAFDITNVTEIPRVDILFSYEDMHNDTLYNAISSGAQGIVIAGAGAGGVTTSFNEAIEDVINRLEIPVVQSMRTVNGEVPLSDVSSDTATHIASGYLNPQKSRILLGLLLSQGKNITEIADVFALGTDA
Kind of series: Effect of xylitol on asparaginase activity, A. niger wt. The following applies: buffer 70.8 g + 29.2 g xylitol, pH 6, 37° C.; activity in buffer without xylitol = 100%. It counts as biochemical. How it is done: (§1) Example 13: Asparaginase Activity Assay—Used in Example 14
(§2) Asparaginase hydrolyses asparagine to aspartic acid and ammonium. Produced ammonium is determined using Nessler's reagent.
(§3) Activity is determined relative to a standard of known activity in ASNU or to a relevant control sample. Activity as determined according to this assay is referred to as nASNU.
(§4) Mix buffer and asparagine and let it equilibrate at 37° C. for 10-15 min. Add enzyme standard or sample and incubate for 10 min at 37° C. Add TCA to stop the reaction.
(§5) Ammonium Determination (Nessler Assay)
(§6) Milli-Q water, sample and Nessler's reagent is added to the microtiter plate. Shake for 10 sec and then leave to incubate for 10 min before shaking again and reading at 440 nm.
(§7) Example 14: Testing the Effect of NaCl and Xylitol on Enzyme Activity
(§8) To test the effect of NaCl or xylitol on asparaginase activity, the compounds were added directly to the buffer and asparaginase activity measured using the standard assay described in Example 13. NaCl was tested in two concentrations and xylitol in one.
(§9) Buffer: 20 mM citric acid buffer, pH 6, 0.001% triton X100:
(§10) Xylitol: 70.8 g buffer+29.2 g xylitol
(§11) The measured activity in the presence of either NaCl or xylitol was compared to the activity in buffer without NaCl and xylitol (set as 100%).

Series [2] addresses T2, Aspergillus oryzae asparaginase, wild type (Wt enzyme), SEQ ID NO: 2 (Aspergillus oryzae, UniProt Q2URI4).
T2 construct: Nessler assay with xylitol or NaCl
Kind of series: Effect of xylitol on asparaginase activity, Wt enzyme. It counts as biochemical. The conditions noted are these: buffer 70.8 g + 29.2 g xylitol, pH 6, 37° C.; activity in buffer without xylitol = 100%. As to the method:
as §1, §2, §3, §4, §5, §6, §7, §8, §9, §10, §11

Substrate in series [3]: NC(=O)C[C@H](N)C(=O)O
The experiment in a line: Km and kcat determination, WT. The conditions noted are these: other: L-asparagine 0.22-26.6 mM, pH 5.0, 50° C., 10 min. Format: biochemical, Aspergillus oryzae. As to the method:
(§12) Example 15: Km and Kcat Determination
(§13) Purified enzyme was diluted with 20 mM sodium acetate buffer pH 5.5 to a solution of a specified activity around 2 rASNU/ml. Ten microliters of enzyme solution was added to 100 microL of preincubated substrate solution containing L-asparagine in different concentration (0.22-26.6 mM) constructed by dissolving L-asparagine monohydrate in 100 mM sodium acetate buffer pH 5.0 including 0.02% TritonX-100. After 10 min incubation at 50° C., the amount of generated ammonia in the reaction mixture was measured by using Ammonia Test Kit (Wako Pure Chemicals, Japan) following the package insert protocol. The Km and Vmax were determined from Michaelis-Menten equation, and kcat was calculated using Vmax.

Substrate in series [4]: NC(=O)C[C@H](N)C(=O)O
Kind of series: Km and kcat determination, JN161. Format: biochemical, Aspergillus oryzae. The conditions noted are these: other: L-asparagine 0.22-26.6 mM, pH 5.0, 50° C., 10 min. How it is done: as §12, §13

Substrate in series [5]: NC(=O)C[C@H](N)C(=O)O
The experiment in a line: Km and kcat determination, JN167. Format: biochemical, Aspergillus oryzae. The following applies: other: L-asparagine 0.22-26.6 mM, pH 5.0, 50° C., 10 min. As to the method: as §12, §13

Substrate in series [6]: NC(=O)C[C@H](N)C(=O)O
The experiment in a line: Km and kcat determination, JN180. The conditions noted are these: other: L-asparagine 0.22-26.6 mM, pH 5.0, 50° C., 10 min. Format: biochemical, Aspergillus oryzae. As to the method:
as §12, §13

Substrate in series [7]: NC(=O)C[C@H](N)C(=O)O
Kind of series: Km and kcat determination, JN183. Format: biochemical, Aspergillus oryzae. The conditions noted are these: other: L-asparagine 0.22-26.6 mM, pH 5.0, 50° C., 10 min. How it is done: as §12, §13

Substrate in series [8]: NC(=O)C[C@H](N)C(=O)O
Kind of series: Km and kcat determination, JN178. It counts as biochemical, Aspergillus oryzae. The following applies: other: L-asparagine 0.22-26.6 mM, pH 5.0, 50° C., 10 min. How it is done:
as §12, §13

Substrate in series [9]: NC(=O)C[C@H](N)C(=O)O
Kind of series: Km and kcat determination, JN181. The conditions noted are these: other: L-asparagine 0.22-26.6 mM, pH 5.0, 50° C., 10 min. It counts as biochemical, Aspergillus oryzae. As to the method: as §12, §13

Substrate in series [10]: NC(=O)C[C@H](N)C(=O)O
The experiment in a line: Km and kcat determination, JN182. It counts as biochemical, Aspergillus oryzae. The conditions noted are these: other: L-asparagine 0.22-26.6 mM, pH 5.0, 50° C., 10 min. How it is done: as §12, §13

Take `OC[C@@H](O)[C@H](O)[C@@H](O)CO` [xylitol]: the figures for the “% activity xylitol” value in [1] and in series [2] were 176% and 158%, respectively.

B1: Aspergillus oryzae asparaginase, wild type (WT), SEQ ID NO: 2 (Aspergillus oryzae RIB40) (protein)
chain: ATDSNVTYVFTNPNGLNFTQMNTTLPNVTIFATGGTIAGSSADNTATTGYKAGAVGIQTLIDAVPEMLNVANVAGVQVTNVGSPDITSDILLRLSKQINEVVCNDPTMAGAVVTHGTDTLEESAFFLDATVNCRKPVVIVGAMRPSTAISADGPLNLLQSVTVAASPKARDRGALIVMNDRIVSAFYASKTNANTVDTFKAIEMGNLGEVVSNKPYFFYPPVKPTGKTEVDIRNITSIPRVDILYSYEDMHNDTLYSAIDNGAKGIVIAGSGSGSVSTPFSAAMEDITTKHNIPIVASTRTGNGEVPSSAESSQIASGYLNPAKSRVLLGLLLAQGKSIEEMRAVFERIGVA
notes: purified
Consider B1, for which, in series [3], the Km worked out at 950 µM and the kcat came to 121 s⁻¹.

B2: Aspergillus oryzae asparaginase variant JN161: JN070 (N70K S307A A323R T327V A349Q S351A V353I, SEQ ID NO: 4) with K122A P241E K290V S299A S338W (Aspergillus … (protein)
chain: ATDSNVTYVFTNPNGLNFTQMNTTLPNVTIFATGGTIAGSSADKTATTGYKAGAVGIQTLIDAVPEMLNVANVAGVQVTNVGSPDITSDILLRLSAQINEVVCNDPTMAGAVVTHGTDTLEESAFFLDATVNCRKPVVIVGAMRPSTAISADGPLNLLQSVTVAASPKARDRGALIVMNDRIVSAFYASKTNANTVDTFKAIEMGNLGEVVSNKEYFFYPPVKPTGKTEVDIRNITSIPRVDILYSYEDMHNDTLYSAIDNGAVGIVIAGSGAGSVSTPFAAAMEDITTKHNIPIVRSTRVGNGEVPSSAEWSQIASGYLNPQKARILLGLLLAQGKSIEEMRAVFERIGVA
notes: purified; expressed in Aspergillus
Turning to B2, in [4], the Km stood at 690 µM and the kcat was 172 s⁻¹.

B3: Aspergillus oryzae asparaginase variant JN167: JN070 (N70K S307A A323R T327V A349Q S351A V353I, SEQ ID NO: 4) with K122A P241E S299A S334P (Aspergillus oryzae … (protein)
chain: B2 chain with V264K, S308P, W312S
notes: as for B2
Consider B3, for which, in series [5], the Km was 670 µM and the kcat turned out to be 127 s⁻¹.

B4: Aspergillus oryzae asparaginase variant JN180: JN070 (N70K S307A A323R T327V A349Q S351A V353I, SEQ ID NO: 4) with K122A K240R P241E S299A S334P E337S … (protein)
chain: B2 chain with K214R, V264K, S308P, E311S, W312S
notes: as for B2
Consider B4, for which, in [6], the Km amounted to 830 µM and the kcat was 185 s⁻¹.

B5: Aspergillus oryzae asparaginase variant JN183: JN070 (N70K S307A A323R T327V A349Q S351A V353I, SEQ ID NO: 4) with K122A P241E S299A S334P S338W (Aspergillus … (protein)
chain: B2 chain with V264K, S308P
notes: as for B2
For B5, in series [7], the Km is 910 µM and the kcat came out at 189 s⁻¹.

B6: Aspergillus oryzae asparaginase variant JN178: JN070 (N70K S307A A323R T327V A349Q S351A V353I, SEQ ID NO: 4) with K122A K240R P241E S299A S334P (Aspergillus … (protein)
chain: B2 chain with K214R, V264K, S308P, W312S
notes: as for B2
For the molecule B6, in [8], the Km is 880 µM and the kcat was 127 s⁻¹.

B7: Aspergillus oryzae asparaginase variant JN181: JN070 (N70K S307A A323R T327V A349Q S351A V353I, SEQ ID NO: 4) with K122A K240R P241E K253R S299A S334P E337S … (protein)
chain: B2 chain with K214R, K227R, V264K, S308P, E311S, W312S
notes: as for B2
As for B7, in series [9], the Km came out at 580 µM and the kcat was determined as 138 s⁻¹.

B8: Aspergillus oryzae asparaginase variant JN182: JN070 (N70K S307A A323R T327V A349Q S351A V353I, SEQ ID NO: 4) with K122A P241E S299A S334P E337S (Aspergillus … (protein)
chain: B2 chain with V264K, S308P, E311S, W312S
notes: as for B2
For B8, in series [10], the Km was 910 µM and the kcat stood at 186 s⁻¹.
